As usually defined, the stoichiometry N is a count of units in the complex or per binding partner.

The record followed here is publication doi:10.1101/2024.08.21.608941.

Data set [1] addresses M. tuberculosis Eσ^B holoenzyme (M. tuberculosis) (UniProt P9WGZ1). The data set is described as follows: cryo-EM particle classification.
Data set [2] shares this target. The data set is described as follows: negative-stain electron microscopy.
Data set [3] has as its target RNAP core deltaFT;sigB Cys151/292 (DY547P1/DY647P1 labelled);RbpA (Mycobacterium …, UniProt P9WGZ1;P9WGY9;P9WGY7;P9WGY5;P9WGI5;P9WHJ5 …, internal_change|T151C;G292C|). The data set is described as follows: smFRET.
For data set [4], the target named is RNAP core deltaFT;sigB Cys151/292 (DY547P1/DY647P1 labelled) (Mycobacterium …, UniProt P9WGZ1;P9WGY9;P9WGY7;P9WGY5;P9WGI5 1-347;1-810+826-1178;1-1316;1-110;1-323, internal_change|T151C;G292C). The data set is described as follows: smFRET.

In the case of “M. tuberculosis Eσ^B holoenzyme (from UniProt P9WGZ1;P9WGY9;P9WGY7;P9WGY5;P9WGI5) (complex)”, the values for the stoichiometry N in data set [1] and in data set [2] were 2 and 8, respectively.

In the case of TGCGTATAATGTGTGGA (ssDNA) [-10 ssDNA (unlabelled)], the binding result in data set [3] and in data set [4] was “binds” in each case.
